Test [1] concerns the target T1, HLA class I-A2 molecule (human), P04439.
T1 chain: not shown
Put plainly: T2 binding assay, peptide 50 µg/ml for 24 h, anti-HLA-A2 mAb, flow cytometry; cut off for positivity 100. (In general: A flow cytometer gives signals particle by particle.)

For test [2] the target is unchanged. In words: T2 cell binding assay, peptide 50 µg/ml, HLA-A2 upregulation read with MAb A2,69 by flow cytometry.

T2 binding, relative fluorescence (mean intensity) and mean channel fluorescent intensity data for three molecules are collected here from patent publication US6946133.

B1: prostate specific antigen oligo-epitope peptide (PSA-OP) (peptide)
peptide: FLTPKKLQCVDLHVISNDVCAQVHPQKVTK
modifications: not checked
Turning to B1, in test [1], the T2 binding, relative fluorescence (mean intensity) is 63.3.

B2: PSA peptide 146-154 (peptide)
peptide: KLQCVDLHV
modifications: not checked
As for B2, the mean channel fluorescent intensity in test [2] came to 224.

B3: PSA peptide 141-150 (peptide)
peptide: FLTPKKLQCV
modifications: not checked
Regarding B3, the mean channel fluorescent intensity in test [2] was 230. The molecule further showed a T2 binding, relative fluorescence (mean intensity) in test [1] of 128.
